Test results from the nanobody polyreactivity screen of Harvey et al. (2022).

Assay: yeast display, Sf9 membrane polyspecificity reagent, FACS + sequencing; frameworks hold sequencing errors
Procedure, shortened: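 In a synthetic yeast display library (Saccharomyces cerevisiae BJ5465), nanobody expression was induced with galactose for 36–48 hours. FACS gates were set low and high (top ~1%) using anti-HA fluorescence for expression and streptavidin fluorescence for binding of the Sf9 membrane reagent. Each polyreactivity label is drawn from the gate of origin.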

Sequence | polyreactivity (PSR sort gate)
QVQLVESGGGLVQAGGGLRLSCAASGFTFYLYVMGWYRQAPGKERELVARISRSGGTTYYADSVKGRFTISRDNAKNTVYLQMNSLKPEDTAVYYCAARRYGVPPTYDYCGQGTQVTVSS | high polyreactivity
QVQLVESGGGLVQAGGIIRLSCAASGLIFSRYAMGWYRQAPGKETELVAAITQSGTSTYYADSVKGRFTISRDNANNTVYLQMTILKPEDTAVYYCNAYPQYRYDYWGQGTQVTVSS | low polyreactivity
QVQLVESGGGLVQAGGILRLICAASGRIFGPYAMGWYRQAPGKERELVADITGGGTYYADSVKGRFTISRDNAKNTVYLQMFSLKPEDTSVYYCAADYSSYTSFRYDYWGQGTHVTVSS | low polyreactivity
QVQLVESGGGLVQAGGILRLICAASGSIFGKYTMGWYRHAPGKERELVAGITYRAGSTYYADSVKGRFTISRDNAKNTVYLQMNSLKPEDTAVYYCAARFYFRWYYYGSYANYWGQGTQVTVSS | high polyreactivity
QVQLVESGGGLVQAGGILRLICAAYGRILAYNSMGWYRQAPGKQRELVAGISWSGGSTYYADSVKGRFTISRDNAKNTVYLQMNSLKPEDTAVYYCAKTPYYRYAKQRYTSSHDYWGQGTQVTVSS | high polyreactivity
QVQLVESGGGLVQAGGILRLICADSGSTFAQYAMGWYRPAPGKERELVAAISRLGASTYYAYSVKGRFTISRDIAKNTVYLQMNSLKPEDTVVYYCNAVRGEKMGYWGQGTQVTVSS | high polyreactivity
QVQLVESGGGLVQAGGILRLNCAASGFIFRRYAMGWSRQAPGKERELVAAISSGGTSTYYADSVKGRFTISRDNAKYTVYLQKNSLKPEDTAVSYCNVDTDPYYWGGDYYWGQGTQVTVSS | high polyreactivity
QVQLVESGGGLVQAGGILRLSCAAPGSTFRKCAMGWYRQAPGKERELVAAISRGGTSTYYADSVKGRFTISRDNAKNTVYLQMNSLKPEDTAVYSCRYFRYSYGTKYDYWGQGTQVTVSS | high polyreactivity
QVQLVESGGGLVQAGGILRLSCAASGFIFAKYAMVWYRQAPGKERELVAAITSGGSTNYADSVKGRFTISRDNAKNTVYLQMNSLKPEDTAVYYCNRGFDWWYRYRHYDYWGQGTQVTVSS | low polyreactivity
QVQLVESGGGLVQAGGILRLSCAASGFIFVDYSMGWYREAPAKESQLVAAISGRDGSTYYADSVKGRFTISRDNAKNTVYLQMNSLKPEDTAVYYCAADRIHSGTLYDYDYWGQGTQVTESS | low polyreactivity
QVQLVESGGGLVQAGGILRLSCAASGFIFVDYVMGWSRQAPGKERELVAAINRNGGRPYYADSVKGRFTISRDNEKNTVYLQMNRLKPEDTAVYYCAAVYRSDRYHWYYYWGQGTQVTVSS | high polyreactivity
QVQLVESGGGLVQAGGILRLSCAASGIIFQQYAMGWYRQAPGKERELVAAITYSGDGTYYADSEKGRFTISRDNAKNTVYLQMNSLKPEDTAVYYCNTDRKSRWARYEYWGQGTQVTVSS | low polyreactivity
QVQLVESGGGLVQAGGILRLSCAASGLTFSRYDMGWYRPEPGKERELVAAITWSGSSTYYADSVKGRFTLSRDNAKNTVYLQMNSLKRVDTAVYYCAARYGYSRGPYYRSYYWGQGTQVTVSS | high polyreactivity
QVQLVESGGGLVQAGGILRLSCAASGNIFPLYAMGWYRQAPGKERELVAAITWSTTSTYYADSVKGRFTISRDNAKNTVYLQMNSLKPEDTAVYYCAAGAYRRNKSDYYYWGQGTQVTVSS | low polyreactivity
QVQLVESGGGLVQAGGILRLSCAASGRIFRVNTMGWYRKAPGKERELVAAIRSSGTRTYYADSVKGRFTISRDNAKNTVYLQMNSVKPEDTAVYYCAAYAWRYQAWEFGYWGQGTQVTVSS | high polyreactivity
QVQLVESGGGLVQAGGILRLSCAASGRIFYYNAMGGYRQAPGKERELVAAITSGGSTNYADSVKGRFTISRDNAKNTVYLQMNSLKPEDTAVYYCAADYYYYVAGVHYDYWGQGTQVTVSS | low polyreactivity
QVQLVESGGGLVQAGGILRLSCAASGRIIRSYAMGWYRHAPGKERELVAAITSGGSTNYADSVKGRFTISRDNANNTVYLQMNSLKPEDTAVYYCAARWPWYGKLRYYYWGQGTQVTVSS | high polyreactivity
QVQLVESGGGLVQAGGILRLSCAASGRILDGYAMGWYRQAPGKERELVAAISSRGGRTYYADSVKGRFTISRDNAKNTVYLQMNSLKPEDTAVYYCAATRYGTYEYNYWGQGTQVTVSS | high polyreactivity
QVQLVESGGGLVQAGGILRLSCAASGRTFDSNAMGWYRQAPGKERELVAAISWSGGSTYYADSVKGRFTISRDNAKNTVYLQMNSLKPEDTAVYYCNRLGRHAPATRYGYWGQGTQVTVSS | high polyreactivity
QVQLVESGGGLVQAGGILRLSCAASGRTFGLYAMGWYRQAPGKERELVAAISWGGGRTYYADSVKGRFTISRDNAKNTVDLQMNSVKPEYTAVYYCNAVYSPRYYVGGYDYWGQGTHVTVSS | high polyreactivity

Sequence | polyreactivity (PSR sort gate)
QVQLVESGGGLVQAGGILRLSCAASGRTFGRNAMGWYRQAPGKERELVARITSGGSTSYADSVKGRFTISRDNAKNTVYLQMNSLKPEDTAVYYCAKGSYGVAYFTHTARYYGGYEYWGQGTQVTVSS | high polyreactivity
QVQLVESGGGLVQAGGILRLSCAASGRTFMYYAMGWYRQAPGKDMELVAAIRRGSSTYYADSVKGRFTISRDNAKYSVYLQMNSLKPEDTAVYYCAARGRYRIGQGRYGKRYDYWGHGTQVTVSS | high polyreactivity
QVQLVESGGGLVQAGGILRLSCAASGRTIYYYAMGRYRQAPRKERELVASISWSGGSTYYADSVKGRFTISRDNAKNTVYLQMNSLKPEDTAVSYCNAQYHTYRWLYAVYLSGDYWGQGTQVTVSS | low polyreactivity
QVQLVESGGGLVQAGGILRLSCAASGSIFAGYAMGWYRQAPGKERELVAVITWRTDITYADSVKGRFTISRDNAKNTDYLHMNSLKPDDTAVYYCAADSDSTTRLFGDEYWGQGTQVTVSS | low polyreactivity
QVQLVESGGGLVQAGGILRLSCAASGSIFDVYAMGWYRQAPGKERELVAAISRSGGRTYYADSVKGRFTISRDNAKNRVYLQMNSLKPEDTAVYYCATYPCNWDLDYWGHGTQVTVSS | high polyreactivity
QVQLVESGGGLVQAGGILRLSCAASGSIFLYNALGWYRQAPGKERELVAAISKSGGSTYYADSVKGRFTISRDNAKNTVYLQMNSLKPEDTAVYYCAAGYGRLIRYGSDYDYWGQGTQVTVSS | low polyreactivity
QVQLVESGGGLVQAGGILRLSCAASGSIFSGNDMGWYRQAPGKERELVASINRSGGSTNYAVSVKGRFTISRDNAKNTVYLQMNSLKPEDTAVYYCARDFSFLGNASARLDYDYWGQGSQVTVSS | low polyreactivity
QVQLVESGGGLVQAGGILRLSCAASGSIFVGNAMGGYRQAPGKERELVATISWSGGSTYYADSVKGRFTISRDNAKNTVYLQMNCLKPEDSAVYYCAKTPYRRYRYGGYTYRTYDYWGQGTQVTVSS | low polyreactivity
QVQLVESGGGLVQAGGILRLSCAASGSIVTDNAMGWYRQAPGKERELVAAITSSGNTNYADSVKGRFTISRDNAKNTVYLQINSLKPEDTAVYYCAADSYYKHWTDWLPVGEDYWGQGTQVTVSS | low polyreactivity
QVQLVESGGGLVQAGGILRLSCAASGSTFTGYAMGWYRQAPGKERELVAAISSSGGRTYYAASVKGRFTISRDNANNTVYLQMNSLKPEVTAVYYCATDHYRYGGYSWGQGTEVTVSS | high polyreactivity
QVQLVESGGGLVQAGGILRLSCAASGSTFVRYVMVWYRQAPGKERELVAAISRRGGSTYYADSVKGRFTISRDNAKNTVYLQMNSLKPEDTAVNYCARTVGYRTLLESDSWGQGTQVTVSS | high polyreactivity
QVQLVESGGGLVQAGGILRLSCAASGSTFYSYAMGWYRQAPGKERELVAYIDWSGGYTYYADSVKGRFTISRDNAKNTVYLQMNSLKPEDTAVYYCNAERGATGYYVTGDDYWGQGTQVTVSS | low polyreactivity
QVQLVESGGGLVQAGGILRLSCASSGRIFTFYAMGWYRQAPGKERELVAAISSGGSTYYADSVKGLFTISRDNAKNTVYLQMNSLKPEDTAVYYCAAEPVWYADYDYWGQGTQVTVSS | low polyreactivity
QVQLVESGGGLVQAGGILRLSCPASGSIIVFYAMGWYRQAPGKEREIVATITWSGTSTYYADSVKGRFTISRDYAKNTVYLQKNSLKPEDTAVYYCNARTVKASYVGYNYWGQGTQVTVSS | high polyreactivity
QVQLVESGGGLVQAGGILRLSCSASGYISKVYVMGWYRQAPGKERELVAAITNGGRTNYADSVKGRFTISRDNAKNTVYLQMNSLKPEDTAVYYCAARPRWHIRYNYWGQGTQVTVSS | high polyreactivity
QVQLVESGGGLVQAGGILRLSFAASGFISLDYAMGWYRQAPGKERELVAAISNGGGTNYADSVKGRFTISRDNAKNTVYLQMNSLKPEDTAVYYCNASVSYGYEYDSWGQGTQVTVSS | low polyreactivity
QVQLVESGGGLVQAGGILRLSSAASGFTFGYYAMGWYRQAPGTQRELVAAINWSGGRTYYADSVKGRFTISRDNAKNTVYLQMNSLKPEDTAVYYCAADPKKGRQMYYWGQGTQVTVSS | high polyreactivity
QVQLVESGGGLVQAGGILRLTCAASGRTFYKNAMGWYRQAPGKERELVAAIDWIDGNTYYADSVKGRFTISRDNAKNTVYLQMNSLKPEDTAVYYCAAEGYDLGDYWGQGTQVTVSS | low polyreactivity
QVQLVESGGGLVQAGGILSLSCAASGNTFKGNAMGWYRQAPGKERELVAAISWSTDSTYYADSVKGRFTISRDNAKNSVYLQMNSLKPEDTAIYYCAADYSHLPIAWYYYWGQGTQVTVSS | low polyreactivity
QVQLVESGGGLVQAGGMLRLSCAASGRIFGVNAMGWYRQAPGKERELVAVISSGGSTYYADSVKGRFTISRDNAKNTVYVQMNSLKPEDTAVYYCNAVVGRWFPYNLSDYWGQGTQVTVSS | low polyreactivity
